From patent US20250282876A1, “STABLE Fc FRAGMENTS, CONJUGATES, COMPOSITIONS, AND METHODS OF USE” (PURDUE RESEARCH FOUNDATION, priority 2022, published 2025) come the findings set out here.

In test [1] the test system is antibody-dependent cell-mediated cytotoxicity (ADCC). Put plainly: ADCC activity of mFc mutant (Example 1 statement). It is filed as cell-based. Conditions: compared to WT.
Test [2] concerns the target T1, CD32b (Homo sapiens, UniProt P31994).
T1 construct: purchased Beijing Sino Biological Inc
T1 sequence (P31994 43-310): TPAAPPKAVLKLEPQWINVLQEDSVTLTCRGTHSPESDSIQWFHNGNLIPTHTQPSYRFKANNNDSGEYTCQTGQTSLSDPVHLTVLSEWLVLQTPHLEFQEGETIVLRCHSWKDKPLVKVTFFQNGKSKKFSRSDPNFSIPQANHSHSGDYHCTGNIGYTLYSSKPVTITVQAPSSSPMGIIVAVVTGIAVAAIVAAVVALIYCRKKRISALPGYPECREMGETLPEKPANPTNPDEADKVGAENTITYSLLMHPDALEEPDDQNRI
Put plainly: Bio Layer Interferometry (Octet) binding of monomeric Fc variants to FcγR. As to conditions: huFcγR variant CD32b; 1:1 Langmuir fit; * denotes weak binding/inaccurate KD.

Test [3] has as its system antibody-dependent cellular phagocytosis (ADCP). Put plainly: ADCP activity of mFc mutant (Example 1 statement). Format: cell-based. Conditions: compared to WT.
In test [4] the target is T2, FcγRIIb (Homo sapiens, UniProt P31994).
T2 sequence (P31994 43-310): T1 sequence (P31994 43-310)
The test is described as follows: Binding of mFc mutant compared with wild-type (Example 1 statement). Conditions: as compared to WT.

Test [5] has as its target FcγRIIIa (Homo sapiens, UniProt P08637). The test is described as follows: Binding affinity of mFc mutant compared with wild-type (Example 1 statement). Conditions: comparative with wild-type (WT).
The target in test [6] is T3, CD16a (176F) (Homo sapiens, UniProt P08637).
T3 construct: purchased Beijing Sino Biological Inc
The test is described as follows: Bio Layer Interferometry (Octet) binding of monomeric Fc variants to FcγR. Conditions: huFcγR variant CD16a(176F); 1:1 Langmuir fit; * denotes weak binding/inaccurate KD.

Sequence of FcγRIIIa (P08637 17-254): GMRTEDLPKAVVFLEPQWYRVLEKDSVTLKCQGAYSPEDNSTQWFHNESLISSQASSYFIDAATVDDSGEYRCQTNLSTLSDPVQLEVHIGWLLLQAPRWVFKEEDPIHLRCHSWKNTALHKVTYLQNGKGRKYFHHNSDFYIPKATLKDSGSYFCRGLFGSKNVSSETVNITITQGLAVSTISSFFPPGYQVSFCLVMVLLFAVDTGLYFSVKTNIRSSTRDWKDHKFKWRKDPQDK
T3 sequence (P08637 17-254): as above

With “Mono-Fc DLE: modified Fc region of human IgG1 with DLE mutation (Ser239Asp/Ala330Leu/Ile332Glu)”, the ADCC activity entry in test [1] is given as “enhanced”. This substance also yielded a dissociation constant (Kd) in test [2] of 1.34 nM. For the same substance, the ADCP activity result in test [3] is “enhanced”. Besides, the “binding to inhibitory FcγRIIb” value in test [4] is recorded as “low binding”. Besides, the “binding affinity to FcγRIIIa” value in test [5] is on record as “increased FcγRIIIa affinity”.

Take “Mono-Fc WT: wild-type Fc region of human IgG1 (aa 216-447), expressed as about 26 kDa monomeric form [reference compound]”: the equilibrium dissociation constant (Kd) was 3760 nM in test [2] and below 0.001 nM in test [6].
